Changes are numbered by the printed parent chain.
T1: cynomolgus monkey CD46 (cynomolgus monkey, UniProt A0A2K5WCL8 35-377)
T1 construct: whole, on cells; also called cyno monkey CD46; CHO-cynoCD46
T1 sequence: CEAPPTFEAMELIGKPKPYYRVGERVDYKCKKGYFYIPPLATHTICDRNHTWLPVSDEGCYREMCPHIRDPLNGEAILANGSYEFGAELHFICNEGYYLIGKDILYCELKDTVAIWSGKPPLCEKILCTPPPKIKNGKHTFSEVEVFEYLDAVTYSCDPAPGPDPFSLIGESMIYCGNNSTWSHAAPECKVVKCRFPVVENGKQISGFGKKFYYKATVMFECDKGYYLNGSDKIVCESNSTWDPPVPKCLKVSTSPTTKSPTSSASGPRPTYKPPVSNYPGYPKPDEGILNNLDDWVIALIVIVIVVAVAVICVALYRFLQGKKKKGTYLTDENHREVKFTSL

T2: recombinant Fc fusion protein composed of the Sushi domain 1 and 2 of human CD46 (human, UniProt P15529 35-159)
T2 construct: domain: Sushi domain 1 and 2; Produced in HEK293 cells, purified by protein A; also called CD46-Fc fusion; recombinant CD46-Fc fusion protein; not shown: Fc part
T2 sequence (looked up): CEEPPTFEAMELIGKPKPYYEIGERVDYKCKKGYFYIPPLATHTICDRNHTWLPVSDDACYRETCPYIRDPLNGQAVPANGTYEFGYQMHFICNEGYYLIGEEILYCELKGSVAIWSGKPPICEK

B1: YS5 (antibody, V domains shown)
VH: QVQLVQSGGGVVQPGRSLRLACAASGLTVNNYAMHWVRQAPGKGLEWVAVISYDGNNKYYADSVKGRFTISRDNSKNTLYLQMNSLRAEDTAVYYCAKGGGYFDLWGRGTLVTVSS
VL: QSVLTQPPSVSGAPGQRVTISCTGSSSNIGAGYDVHWYQQLPGTAPKLLIYGNNNRPSGVPDRFSGSKSGTSASLAITGLQAEDEADYYCSSYTSGTWLFGGGTKLTVL
notes: Human scFv from phage/yeast display, converted into full human IgG1; also called YS5 IgG1; anti-CD46 antibody (YS5)
B2: YS7 (antibody, V domains shown)
VH: QVQLVQSGGGVVQPGRSLRLSCAASGFTFSSYAMHWVRQAPGKGLEWVAVISYDGSNKYYADSVKGRFTISRDTSTNTLYLQMNSLRADDTAVYYCGRESSGSPGVWGQGTTVTVSS
VL: SYVLTQDPAVSVALGQTVRITCQGDSLRSYYASWYQQKPGQAPVLVIYGKNNRPSGIPDRFSGSSSGNTASLTITGAQAEDEADYYCNSRDSSGNQFGGGTKLTVL
notes: Human scFv from phage/yeast display, converted into full human IgG1
B3: YS3 (antibody, V domains shown)
VH: QVQLQESGGGLVQPGGSLRLSCAASGFTFSSYWMSWVRQAPGKGLEWVADIKQDGSEKYYVDSVKGRFTISGDNAKNSLYLQMNSLRAEDTAVYYCAKDVGSTAINYVRAYTWFDPWGQGTLVTVSS
VL: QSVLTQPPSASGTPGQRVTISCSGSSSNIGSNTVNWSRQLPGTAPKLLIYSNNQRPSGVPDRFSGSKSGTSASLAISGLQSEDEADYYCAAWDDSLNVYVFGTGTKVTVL
notes: as for B2
B4: YS8 (antibody, V domains shown)
VH: QVQLQESGGGVVQPGRSLRLSCAASGFTFSSYGMHWVRQAPGKGLEWVAVISYDGSNKYYADSVKGRFTISRDNSKNTLYLQMNSLRAEDTAVYYCAKVMGLAAAGLDAFDIWGQGTTVTVSS
VL: NFMLTQPASLSGSPGQSITISCTGTSSDVGGYNYVSWYQQHPGYAPKLMIYDVSNRPSGVSNRFSGSKSGNTASLTISGLQAEDEADYYCSSYTSSSTPWVFGGGTKLTVL
notes: as for B2
B5: 2C8 (antibody, V domains shown)
VH: B4 VH with Q1E, Q5V, V93E, T118L
VL: B4 VL with N1Q, F2S, M3A, L10V, Y44K, D87Y, T98D, K107Q
notes: as for B2
B6: YS11 (antibody, V domains shown)
VH: QVQLVESGGGLVQPGGSLGLSCAASGFTFSNYWMSWVRQAPGKGLEWVANVRQDGGQKYYVDSVKGRFTISRDNAKNSLYLQMNSLRTEDTAVYFCVSQRNSGEHDYWGQGTLVTVSS
VL: SELTQDPAVSVALGQTVRITCQGDSLRSYYASWYQQKPGQAPVLVIYGENSRPSGIPDRFSGSSSGNTASLTITGAQAEDEADYYCNSWDSSGNHVVFGGGTKLTVL
notes: as for B2
B7: YS4 (antibody, V domains shown)
VH: QVQLQESGGGLVQPGGSLRLSCAASGFTFSNYAMSWVRQAPGKGLEWVSTISGSGSSTFYVDSVKGRFTISRDNSKNTLYLQMNSLRAEDTAVYYCAQGLYSSGWANWFDPRGQGTLVTVSS
VL: KIVLTQSPSSLSASVGDTVTIACRASRDIRNDLAWYQQKPGKAPKLLIYGASSLQSGVPSRFSGSGSGTEFILTISSLQPEDFATYYCHRLNSYPLTFGGGTKVDIK
notes: as for B2
B8: YS9 (antibody, V domains shown)
VH: QVQLVESGGGLIQPGGSLRLSCAASGFTVSSNYMSWVRQAPGKGLEWVSVIYTDGSTYYADSVKGRFTISRDNSKNTLYLQMNSLRAEDTAIYYCARDRGTSGYDWAWFDLWGQGTLVTVSS
VL: SSELTQDPAVSVALGQTVRITCQGDSLRTYYASWYQQRPGQAPILVLYGKNNRPSGIPDRFSGSSSGNTASLTITGAQAEDEADYYCNSRDSSGNHVVFGGGTKLTVL
notes: as for B2
B9: YS5F (antibody, V domains shown)
VH: B1 VH with L27F
VL: B1 VL
notes: as for B2
B10: YS12 (antibody, V domains shown)
VH: QVQLVESGGGVVQPGRSLRLSCAASGFTFSTYGMHWVRQAPGKGLEWLSFISYDGDEKYYADSVKGRFTISRDNSKNTLYLQMNSLRAEDTAVYWCAKASGYGMGILDYWGQGTLVTVSS
VL: SSELTQDPAVSVALGQTVRITCQGDSLRSYYVSWFQQKPGQAPVFVMYGQNNRPSGISERFSGSSSGNTASLIITGAQAEDEADYYCHSRDSSGTHLRVFGGGTKLTVL
notes: Human scFv from phage/yeast display, converted into full human IgG1; also called YS12 IgG1
B11: SB1HGNY (antibody, V domains shown)
VH: QVQLQQSGGGVVQPGRSLRLSCAASGFTFSSYAMHWVRQAPGKGLEWVAFIRSDGSKKYYADSVKGRFTISRDNSKNTLYLQMNSLRAEDTAVYYCARHGNYFDSWGQGTLVTVSS
VL: DIQMTQSPSFLSASVGDRVTITCRASQGISSYLAWYQQKPGKAPKLLIYAASTLQSGVPSSFSGSGSGTEFTLTISSLQPEDFATYYCQQLASYPLTFGGGTKVDIK
notes: as for B2
B12: 3G7RY (aka 3G8) (antibody, V domains shown)
VH: EVQLVESGGGLVQPGGSLRLSCAASGFTFSDYYMSWIRQAPGKGLEWVSYISSSGSTIYYADSVKGRFTISRDNSKNTLYLQMNSLRAEDTAVYYCARDYGRIAAAGRRYWGQGTLVTVSS
VL: QSALTQPPSASATPGQRVTISCSGRTSNIGSNHVYWYQQLPGTAPKLLIYRNNQRPSGVPDRFSGSKSGTSASLAISGLRSEDEADYYCATWDDSLSGEVFGGGTKLTVL
notes: Human scFv from phage/yeast display, converted into full human IgG1; elsewhere 3G8 is 3G7RY
B13: 3G7NY (antibody, V domains shown)
VH: B12 VH with R109N
VL: DIVMTQSPLSLPVTPGEPASISCRSSQSLLHSNGYDYLDWYLQKPGQSPQLLIYLGSNRASGVPDRFSGSGSGTDFTLKISRVETEDVGIYYCMQGLQTPSFGQGTKLEIK
notes: as for B2
B14: 3G7HY (antibody, V domains shown)
VH: B12 VH with R109H
VL: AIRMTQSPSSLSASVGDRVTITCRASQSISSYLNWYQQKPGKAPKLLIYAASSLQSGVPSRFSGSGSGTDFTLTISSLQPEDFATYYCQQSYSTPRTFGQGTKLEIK
notes: as for B2
B15: YS1 (antibody, V domains shown)
VH: B12 VH with R109H
VL: SSELTQDPAVSVALGQTVRITCQGDTLSTYYANWYQQKPGQAPVLVIYGKNNRPSGIPDRFSGSSSGNTASLTITGAQAEDEADYYCHSRDISGNYLFASGTKLTVL
notes: as for B2
B16: YS6 (antibody, V domains shown)
VH: B12 VH with E1Q, V5Q, L11V, Q13R, R109H
VL: SSELTQDPAVSVALGQTVRITCQGDSLRSYYASWYQQKPGQAPVLVIYGKNNRPSGIPDRFSGSSSGNTASLTITGAQAEDEADYYCNSRDSSGTHLEVFGGGTKVTVL
notes: as for B2
B17: 3G7 (antibody, V domains shown)
VH: B12 VH with E1Q, V5Q, L11V, Q13R, R109H
VL: B16 VL with L45P, G94S, L97R, E98G, V106L
notes: as for B2
B18: YS10 (antibody, V domains shown)
VH: QVQLQESGGGLVQPGGSLRLSCAASGFTFSSYAMSWVRQAPGKGLEWVSAISGSGGSTYYADSVKGRFTISRDNSKNTLYMQMNSLRAEDTAVYYCAKDRYYYGSGKDAFDIWGRGTMVTVSS
VL: QSVLTQPASVSGSPGQSITISCTGTGSDVGSYNYVSWYQQNPGKAPKLMIYEVSNRPSGVSNRFSGSKSGNTASLTISGLQAEDEADYYCSSYTTSSTLVFGGGTKVTVL
notes: as for B2
B19: UA8kappa (antibody, V domains shown)
VH: EVQLVESGGGVVQPGRSLRLSCAASGFTFSSFGMHWVRRAPGKGLEWVAVISYDGSNQYYADSVKGRFTISRDNSKNTLYLQMNSLRAEDTAVYYCGSRPGGGYASGSTVAYWGQGTLVTVSS
VL: NIQMTQSPSSLSASVGDRVTITCRAGQPISTYVNWYQHKPGKAPKLLIYGASNLQSGVPSRFSGGGSATDFTLTISSLQPEDFATYYCQQSYSSLLTFGDGTKVEIK
notes: Human scFv from phage/yeast display, converted into full human IgG1; also called UASkappa
B20: SB2 (antibody, V domains shown)
VH: EVQLVESGGGLVKPGGSLRLSCAASGFTFSDYYMSWIRQAPGKGLEWVSYISSSGSSIYYADSVKGRFTISRDNAKNSLYLQMNSLKAEDTAVYYCARDITDVVGVSFDYWGQGTLVTVSS
VL: DIQLTQSPSSLSASVGDRVTITCRASRSISTYLSWYQQKPGKAPKLLIYDASRLQNGVPSRFSGSGSDTDFTLTISSLQPEDFATYFCQQSYNPPWTFGQGTKLEIK
notes: as for B2

Biological target: T1, cynomolgus monkey CD46
Assay: FACS on CHO cells transfected with cynomolgus monkey CD46, 4 °C overnight, MFI curve fit
Description: (§1) FIGS. 6. YS5 KD measurement on CHO cells transfected with cynomolgus monkey CD46. YS5 was incubated with CHO-cynoCD46 cells at 4° C. overnight and binding analyzed by FACS.

| Binder | Kd |
| --- | --- |
| B1 | 1.95 nM |

Biological target: T2, recombinant Fc fusion protein composed …
Assay: phage and yeast display selection and FACS screening with recombinant CD46-Fc fusion
Text: To identify novel anti-human CD46 antibodies, a recombinant Fc fusion protein composed of the Sushi domain 1 and 2 of human CD46 was created. As complement elements bind predominantly to domain 3 and 4, the choice of domain 1 and 2 minimize selection of antibodies that could potently interfere with normal complement function. This CD46-Fc fusion was produced and purified from transfected HEK293 cells by protein A affinity chromatography. For human antibody selection, a 5×10⁹ member phagemid display library was created using cDNAs pooled from peripheral blood mononuclear cells of 426 healthy human donors, and the library was selected the recombinant CD46-Fc fusion protein. Following three rounds of selection, binding phagemid were screened by FACS and sequenced. In parallel, an alternatively strategy was employed that involve first selecting the library on live tumor cells followed by transferring the output from round 1 phagemid selection into a yeast surface display vector, and then FACS-based selection using low concentration ligands to enrich high affinity binders to the recombinant CD46-Fc fusion protein. The resulting antibodies bind with high affinity to both live tumor cells and the recombinant human CD46 protein.

| Binder | binding result |
| --- | --- |
| B2 | binds |
| B3 | binds |
| B4 | binds |
| B5 | binds |
| B6 | binds |
| B7 | binds |
| B8 | binds |
| B9 | binds |
| B1 | binds |
| B10 | binds |
| B11 | binds |
| B12 | binds |
| B13 | binds |
| B14 | binds |
| B15 | binds |
| B16 | binds |
| B17 | binds |
| B18 | binds |
| B19 | binds |
| B20 | binds |

Biological target: T1, cynomolgus monkey CD46
Assay: FACS on CHO-cynoCD46 cells, 4 C overnight, MFI against antibody concentration
Description: as §1

| Binder | EC50 (read off the curve) |
| --- | --- |
| B1 | ~2 nM |

Reference: patent US20170362330A1 (University of California, published 2017)
